# Experimental data from the nanobody polyreactivity screen of Harvey et al. (2022).
# Assay: yeast display, Sf9 membrane polyspecificity reagent, FACS + sequencing; frameworks hold sequencing errors
# How it was run: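 Synthetic nanobody libraries on Saccharomyces cerevisiae BJ5465 were galactose-induced for 36–48 hours, stained 1 hour at 4 °C with 10% biotinylated, detergent-solubilized Sf9 membrane reagent and enriched on streptavidin microbeads. FACS then separated cells into low and high (top ~1%) gates by anti-HA (expression) and streptavidin (reagent binding) fluorescence. Genes were colony-PCR amplified, MiSeq 2 × 250 sequenced and CDR-length filtered. A clone's polyreactivity label is that of its gate of origin.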
row,Sequence,polyreactivity (PSR sort gate)
1,QVQLVESGGGLVQAGGSLRLICADSGRIFRYNSRGWYRQAPAKERELVASISTGGSSTYYADSVKGRFTISRDNAKNTVYLQMNSLKPEYSAFYYCAATPYSYSARSYGPIYRYDYWGQGTQVTVSS,high polyreactivity
2,QVQLVESGGGLVQAGGSLRLICDASGSTFAVYTMGLYIQAPGTEREFVAAISSTGTCTYYADSVKGRFTISRDHAKNTVYLQKNSLKPEDTAVYYCAARWLGYRISYDYWGQGTQVTVSS,high polyreactivity
3,QVQLVESGGGLVQAGGSLRLICGASGSTFQVNAMGWYRQGPGKERELVASISGGSSTNYADSVKGRFTISRDNAKNTVYLQMNSLKPEDTAVYYCAAYYLSGLRVAYDYWGQGTQVTVSS,low polyreactivity
4,QVQLVESGGGLVQAGGSLRLICPASGRTFQYYAMGWYRQAPGKERELVAAIDDSDGDTYYADSVKGRFTISRDYATNTVYLQMISLKPEDTAVYYCAAVDGWTYTGSDYWGQGTQVTVSS,low polyreactivity
5,QVQLVESGGGLVQAGGSLRLICSASGLISRINAMGWYRQAPGKERELVAAISSGGSTNYADSVKGRFTISRDNAKNTVYLQMNSLKPEDTAVYYCAAEVFRVAWYDYWGQGTQVTVSS,high polyreactivity
6,QVQLVESGGGLVQAGGSLRLISAASGFIFLFYAMGWYRQAPGKERELVAAISSGVSTNYADSVKGRFTISRDNAKNTVYLQMNCLKPEDTAVYYCTTTQSTSLLYDYWGPGTQVTVSS,low polyreactivity
7,QVQLVESGGGLVQAGGSLRLISAASGSTFKIYAMGWYRQAPGKERELVAAITWSGGSTYYADSVKGRFTISRDNAKNTVYLQMNSLKPEDPAVYYCAAVQTYSRYYYWGQGTQVTVSS,high polyreactivity
8,QVQLVESGGGLVQAGGSLRLNCAASGSIFDDYAMGWYRQAPGKERELVAAINIRTGSTYYADSVKGRFTISRDNAKNTVYLQMNSLKPEDTAVYYCNRVVRGFVRHLDYWGQGTQVTVSS,low polyreactivity
9,QVQLVESGGGLVQAGGSLRLNCAASGSIFVLYAMGWYRQAPRKERELVAAIRSTGSTNYADSVKGRFTISRDNAKNTVYLQMNSLKPEDTAVYYCAAYRRRTYAVNKEGGYWGQGTQVTVSS,high polyreactivity
10,QVQLVESGGGLVQAGGSLRLNCAASGSTFGRNAKGWYRQAPGKERELVAAISLSTGSTYDADSVKGRFTISRDNAKNTVYLQMNSLKPEDTAVYYCAKEWGHPYHFLYYYWGQGTQVTVSS,high polyreactivity
11,QVQLVESGGGLVQAGGSLRLNCAASGSTFGYYAMGWYRQAPGKQRELVAAITSGASTNYADSVKGRFTISRDNAKNTVYLLMNSLKPEDTAVYYCSAGFQTRTPLNEFDYWGQGTQVTVSS,low polyreactivity
12,QVQLVESGGGLVQAGGSLRLRCAAAGSIFKLNAMGWYRQAPGKERELVAVIYKSAGRTYYADSVKGRFTISRDNAKNTVYLQMNSLKTEDTAVYYCNAVSKLAVNLDYWGQGTQVTVSS,high polyreactivity
13,QVQLVESGGGLVQAGGSLRLRCAASGFIFAWDAMGWYRQAPGKERELVATISGSGGRTYYADSVKGRFPISRDNAKNTVYLQMISLKPEETAVYYCATRAQGTSWYRTSKYDYWGQGTQVIVSS,high polyreactivity
14,QVQLVESGGGLVQAGGSLRLRCAASGFIFIFNAMGWYRQAPGKERELVAAIDTSDDSTYYADSVKGRFTISRDNAKNTVYLQMNSLKPEDTAVYYCAAEELSNYEYWGQGTQVTVSS,low polyreactivity
15,QVQLVESGGGLVQAGGSLRLRCAASGFIFPQYAMGWYRQAPGKEREKVAAISWSGTRTYYADSVKGRFTISRDNAKNTVYLQMNSLKPEDTADYYCAARIDRQYRWTGFGYWGQGTQVTVSS,high polyreactivity
16,QVQLVESGGGLVQAGGSLRLRCAASGFTFDLYAMGWYRQAPGKERELVAAISWSGGSTRYADSVKGRFTISRDNAKNTVYLQMNSLKPEDTAVYYCAKPVLVGLGSRYDYWGQGTQVTVSS,high polyreactivity
17,QVQLVESGGGLVQAGGSLRLRCAASGFTFYRKAMGWYRHAHGKERELVAAITRGGSTTYADSVKGRFTISRDNAKNTVYLQMNSLKPEDTAVYYCAVPQYLYLQAGHGYRYYYWGQGSQVTVSS,high polyreactivity
18,QVQLVESGGGLVQAGGSLRLRCAASGGIFGYYAMGLYRQAPGKERDFVAAITLSGGRTYYADSVKGRFTISRDNAKNTVYLQMNSLKPEDTAVYYCAAKGTRRGKERNYWGQGTQVTLSS,high polyreactivity
19,QVQLVESGGGLVQAGGSLRLRCAASGGTFRYNAMGWYRQAPGKERELVAAISSSGGSTYYADSVKGRFTISRDNAKNTVYLQMNSLKPEDTAVYYCAAKRRRYVELDYWGQGTQVTVSS,high polyreactivity
20,QVQLVESGGGLVQAGGSLRLRCAASGITLAGYVMGWYRQAPGKERELVADISSSGDSTYYADSVKGRFTISRDNAKNTVYLQMNSLKPEDTAVYYCNADQVWWSFDRVLVGYEYWGQGSQVTVSS,low polyreactivity
21,QVQLVESGGGLVQAGGSLRLRCAASGLIFITYAMGRYRQAPGKERELVATITLRGGSTYYADSVKGRFTISRDNAKNTVYLQMNSLKPEDTAVYYCNADSIYYGYDYWGQGTQVTVSS,low polyreactivity
22,QVQLVESGGGLVQAGGSLRLRCAASGLIFPYYAMGWYRQAPGKERELVAGITSDGSTNYADSVKGRFTLSRDNAKNTVYLQMNSLKPEDTAVYYCNARGVYFWWRLDYWGQGTQVTVSS,low polyreactivity

row,Sequence,polyreactivity (PSR sort gate)
1,QVQLVESGGGLVQAGGSLRLRCAASGRIFAPYAMGRYRQAPWKERELVAAIDGSGGSTYYADSVKGRFTISRDNAKNTVYLQMNSLKPEDTAVYYCANRGYYRSQRWYGYWGQGTQVTVSS,high polyreactivity
2,QVQLVESGGGLVQAGGSLRLRCAASGRIFKSYAMGWYRQAPGKERELVAAINWSGGSTYYADSVKGRFTISRDNAKNTVYLQMNSLKPEDTAVYYCNALYAVRSYDSWGQGTQVTVSS,high polyreactivity
3,QVQLVESGGGLVQAGGSLRLRCAASGRIFREYAMGWYRQAPGKERELVAAITASGGGTYYADSVKGRFTISRDNAKNTVYLQMNSLKPEDTAVYYCAARYSSRTRNDYWGQGTQVTVSS,low polyreactivity
4,QVQLVESGGGLVQAGGSLRLRCAASGRIFTRNDIGWYRQAPGKERQLVAAISHSGGSTYADSVKGSFTISRDNAKNTVFLQMNRLKPEDTEVYYCAADSPYGYYEGDYWGQGTQVTVSS,low polyreactivity
5,QVQLVESGGGLVQAGGSLRLRCAASGRIFTTYAMVWYRQAPGKERELVADITTGGGTYYADSVKGRFTISRDNAKNTVYLQMNSLKPEDTAVYYCNADYSADYYWYYYWGQGTQVTVSS,low polyreactivity
6,QVQLVESGGGLVQAGGSLRLRCAASGRIVYWYAMGWYIQAPGKERELVATINQSGSSTYYADSVKGRFTISRDNAKNTVYLQMNSLKPEDTAVYYCARARSHYAYYWWNAGTGLDYWGQGTQVTVSS,high polyreactivity
7,QVQLVESGGGLVQAGGSLRLRCAASGRTFAINALGWYRQAPGKEREDVASITTSGGRTYYADSVKGRFTISRDNAKNTVYLQMNSLKPEDTAVYYCNAGSYVGSWRFPYYYWGQGTQVTVSS,high polyreactivity
8,QVQLVESGGGLVQAGGSLRLRCAASGRTFKRKAMGWYRQAPGKEREFVAVITGSGGSTYYADSVKGRFTISRDNAKNTVYLQMNSLKPEDTAVYYCAAALGLRSTSWGRRGGGGVYWGQGTQVTVSS,high polyreactivity
9,QVQLVESGGGLVQAGGSLRLRCAASGRTFKVYAMGWYRQAPGKERELVAAISYSGAGTRYADSVKGRFTISRDNAKNTVYLQMNSLKPEDTAVYYCNTDAWARVKRYEYWGQGTQVTVSS,low polyreactivity
10,QVQLVESGGGLVQAGGSLRLRCAASGRTFSGYAMGWYRQAPGKERELVAAITSGGNTYYADSVKGRFTISRDNAKNTVYLQMNSLKPEDTAVYYCAVVDYLWLLQLWLSDYWGQGTQVTVSS,low polyreactivity
11,QVQLVESGGGLVQAGGSLRLRCAASGRTFYSHTMGWYRQAPGKERELVAAIDWSGGRTYYADSVKGRFTISRDNAKNTVYLQMNSLKPEDTAVDYCNTVGYTRRLRSGGYWGQGTQVTVSS,high polyreactivity
12,QVQLVESGGGLVQAGGSLRLRCAASGSIFAHYTMGWYRQAPGKERELVAVISRSGARTYYADSVKGRFTISRDNAKNTVYLQMNSLKPEDTEVYYCAADRTLEEDYWGQGTQVTVSS,low polyreactivity
13,QVQLVESGGGLVQAGGSLRLRCAASGSIFFFYAMGWYRQAPGKERELVAAISKSPSSTYYADSVKGRFTISRDNAKNTVYLQMNSLKPEDTAVYYCNNGYSGIQYYYWGHGTQVTVSS,low polyreactivity
14,QVQLVESGGGLVQAGGSLRLRCAASGSIFHSYAMAWYSQAPGKEREMVASITASVDSTYYADSVKGRFTISRDNAKNTVYLQMNSLIPEDTAVYYCAAEAQFNFYSYDFWGQGTQVTVSS,low polyreactivity
15,QVQLVESGGGLVQAGGSLRLRCAASGSIFKSNAMGWYRQAPGKERELVAAISNGGITNYADSVKGRFTISRDNAKNTVYLQMNSLKPEDTAVYYCATSDVREIWVDYCGQGTQVTVSS,low polyreactivity
16,QVQLVESGGGLVQAGGSLRLRCAASGSIFLVNALGWYRQAPGKEWELVASITWRGGRTYYADSVKGRFTISRDTAKKTVYLQMNRLKPADTAVYYCSALNYRTGERLRYDYWGQGTQVTVSS,low polyreactivity
17,QVQLVESGGGLVQAGGSLRLRCAASGSIFNSYAMGWYRQAPGKERELVPAISRRGGSTYYADSVKGRFTISRDNAKNTVYLQMHSLKPEDTAVYYCNATRPRLTYLGVGYGYDYWGQGTQVTVSS,high polyreactivity
18,QVQLVESGGGLVQAGGSLRLRCAASGSIFSGNAMGWYRQAPGKESELVAAISVNGGRTYYADSVKGRFTISRDNAKNTVSLQMNSLKPEDTAVYYCNAVTKVVYHGPYGYDYWGQGTQVTVSS,high polyreactivity
19,QVQLVESGGGLVQAGGSLRLRCAASGSIFWWYTMGWYRQAPGKERELVASISWSGTSTYYADSVKGRFTISRDNAKYTVYLQMNSLKPEDTALYYCNAVVYWPGTPYTHDDWGQGTQVTVSS,low polyreactivity
20,QVQLVESGGGLVQAGGSLRLRCAASGSTFAWYAMGWYRQAPGKERELVAAISRTGRTYYADSVKGRFTISRDNAKNTVYLQMNSLKPEDTAVYYCAARIERFYRDQRYDYWGQGTQVTVSS,high polyreactivity
21,QVQLVESGGGLVQAGGSLRLRCAASGSTFFRYAMGWYRPAPGKERELLAAITSGGITNYADSVKGRFTISRDNAKNTVYLQMHSLKPEDTAVYYCAKRRTYPGKGRFNYWGQGTQVTVSS,low polyreactivity
